Measurements as given in the supplement of paper PMC10567573.

B1: EPB41L3 (parent)
chain: SELGDYDPDECGSDYISEFRFAPN
B2: ANKRD9 (parent)
chain: LLEDMRASEAFHWDERGRAAAYSP

Variants of: B1
Assay: protein stability index of a GFP-peptide fusion (GPS, HEK-293T) (PSI 1-6); higher = more stable
Conditions: c terminus: a fixed tail appended
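Also: lentivirally expressed fusions sorted by FACS into six bins by GFP to DsRed ratio, PSI derived from sequencing read proportions per bin multiplied by bin number.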

Protein stability index of substitutions, site by site:
E18: Q 1.53 | I 2.41 | R 2.11 | P 1.66 | L 2.45 | D 1.83 | F 2.17 | Y 1.67 | C 2.2 | S 2.15 | A 2.1
S13: V 1.76 | P 2.28 | L 1.97 | W 2.22 | K 1.82 | T 1.69 | F 2.11 | G 2.09 | D 2.7 | C 1.84 | Y 1.91
S17: E 3.88 | R 2.34 | M 2.11 | N 2.57 | F 1.7 | H 1.88 | G 2.36 | C 2.52 | W 1.76
G12: D 3.19 | R 1.77 | F 1.72 | S 2.15 | P 2.12 | H 2.22 | M 1.88 | K 1.9 | A 2.02 | L 2.15 | Q 2.04 | E 2.11 | C 1.55
P23: L 2.81 | R 1.53 | H 2.44 | Y 2.89 | V 2.53 | C 2.12 | A 2.48 | T 3.15 | K 2.68 | Q 2.92 | I 2.7 | S 2.51
S1: E 2.29 | L 2.02 | F 1.86 | A 1.81 | W 1.53 | Q 2.87 | V 2.25 | G 1.99 | Y 3.03 | K 2.35 | C 1.88
R20: G 4.79 | E 5.02 | P 4.81 | V 4.4 | N 4.54 | I 3.75 | S 4.68 | L 4.02 | T 4.18 | Q 4.7 | W 3.92
D14: E 1.5 | V 1.31 | G 1.27 | F 2.43 | A 1.46 | L 2.41 | Q 1.47 | Y 2.11 | S 1.61 | H 1.86 | C 1.89 | R 2.51 | K 1.49
Y15: A 2.46 | C 2.84 | I 2.5 | D 4.23 | N 4.06 | P 1.84 | W 1.97 | M 2.91 | H 2.87 | V 2.52
D9: Y 1.99 | L 1.84 | N 1.55 | F 1.95 | K 2.05
E2: M 1.81 | W 1.77 | D 1.79 | H 1.9 | S 1.68 | Y 2.07 | G 1.03 | Q 1.9 | P 2.54 | K 1.94 | A 1.61 | N 2.03 | T 1.56
C11: G 2.26 | V 1.91 | F 1.77 | I 2.2 | D 2.8 | K 2.26 | R 2.01 | A 2.02 | H 1.6 | Y 2.1 | Q 2.49
A22: I 2.24 | M 3.48 | T 1.85 | G 4.21 | V 3.42 | P 4 | L 3.73 | R 4.12
F21: N 4.74 | E 4.78 | G 5.01 | V 4.52 | Y 4.55 | A 4.75 | D 4.68 | M 4.43 | W 4.24 | R 4.64 | L 4.61
D7: K 1.14 | R 2.44 | W 2.1 | G 2.29 | P 2.31 | N 1.68 | V 1.61 | T 1.57 | F 2.29 | I 1.65 | Q 1.37 | C 1.71
F19: R 4.78 | M 3.91 | W 2.61 | N 5.06 | G 4.99 | K 4.83 | C 4.68 | A 4.66 | Q 5.04
N24: T 2.12 | L 2.02 | P 2.84 | H 1.66 | V 2.55 | R 2.44 | D 2.89 | W 2.45 | A 2.6
Y6: E 2.37 | S 2.11 | W 2.31 | K 2.17 | C 2.27 | N 2.15 | M 1.98 | L 2.19 | I 2.06 | F 2.01 | H 1.73 | T 1.97 | Q 2.11 | G 2.48
D5: S 1.75 | Q 1.75 | T 2.03 | W 1.74 | R 2.05 | P 2.35 | Y 2.09 | C 2.06 | F 1.68 | G 2.26 | K 2.17 | L 1.92 | I 1.87 | H 1.79
L3: M 2.02 | W 1.91 | F 2.36 | Q 2.46 | H 1.74 | A 2.05 | G 2.05 | R 2.03 | K 1.74 | V 2.33 | I 2.02 | P 2.27 | N 2.22
G4: R 2.67 | N 1.9 | K 2.18 | F 1.79 | V 2.06 | Y 2.12 | D 2.35 | L 2 | T 2.39 | M 2.12
I16: L 2.56 | D 4.99 | M 2.24 | N 4.52 | F 2.26 | P 3.7 | A 4.33 | R 3.47 | V 2.76 | C 3.41 | S 4.05 | K 3.37
E10: C 2.38 | W 1.91 | P 2.04 | K 1.85 | A 1.88 | T 1.85 | S 1.85 | I 1.45 | Q 1.84 | V 2.06 | L 1.61 | Y 1.55 | F 1.55 | R 2.26 | G 1.78 | N 1.9
P8: S 2.29 | Q 2.03 | N 2.19 | F 2.37 | Y 1.82 | A 2.44 | K 2.11 | V 1.9 | M 2.08 | G 2.06

Variants of: B2
Assay: as above
Conditions: c terminus: a fixed tail appended

Protein stability index: each site, then its substitutions
E3: S 1.43 | K 2.49 | I 1.85 | N 1.32 | Q 2.38 | M 1.15 | Y 1.55 | C 1.51 | R 3.42 | T 2.31 | D 1.92 | F 2.08 | P 4.09 | L 3.26 | H 2.19 | A 2.72
D4: L 1.64 | K 2.37 | P 3.91 | N 2.5 | Q 2.14 | H 2.69 | G 2.52 | C 2.44 | E 2.03 | M 1.44 | I 2 | A 2.36 | F 2
L2: I 4.67 | R 3.27 | A 3.15 | V 3.17 | D 3.98 | T 3.88 | W 1.9 | M 2.67 | N 3.3 | S 3.94 | C 4.06 | Q 3.66 | F 2.53 | G 3.74 | H 4.13 | Y 1.71 | E 4.52 | K 3.25 | P 4.37
L1: F 3.36 | T 4.04 | Q 4.37 | D 4.18 | A 3.72 | N 3.97 | K 3.4 | V 2.91 | E 4.29 | I 2.44 | P 4.77 | H 4.71 | R 3.93 | Y 3.54 | W 3.01 | M 2.52 | C 3.2 | S 4.22
